Assay results taken from patent US20160090427A1 (SAMSUNG ELECTRONICS, published 2016).

Key:
VEGF (R&D systems) = VEGF (R&D systems) (UniProt P15692-4 27-191, limits assumed); assay: SPR (Biacore T100), CM5 chip, VEGF; format unclear in the text
Procedure: An examination on whether the 8 anti-c-Met/anti-VEGF bispecific antibodies prepared in Example 2 maintains binding affinity to VEGF was conducted using Biacore T100(GE). VEGF (R&D systems) immobilized on the surface of CM5 chip (#BR-1005-30, GE) by amino coupling according to the manufacturer's instructions. About 90˜120 RU of the anti-c-Met/anti-VEGF bispecific antibody was captured, and […] was injected thereto at various concentrations. Then, a solution containing 1M NaCl and 5 mM NaOH was injected thereto to regenerate the surface. The obtained data were fitted using BlAevaluation software (GE Healthcare, Biacore T100 evaluation software), to measure the binding affinity to VEGF.

[1] = biological target: T1, human c-Met/Fc fusion protein (R&D Systems) (human, UniProt P08581 25-932); assay: SPR (Biacore T100), bispecific captured by human Fab binder on CM5 chip, c-Met-Fc injected
T1 construct: Bought reagent; also called c-Met-Fc (#358-MT/CF, R&D Systems); human c-Met/Fc protein; not shown: Fc part of the bought fusion protein
T1 sequence (P08581 25-932 limits assumed): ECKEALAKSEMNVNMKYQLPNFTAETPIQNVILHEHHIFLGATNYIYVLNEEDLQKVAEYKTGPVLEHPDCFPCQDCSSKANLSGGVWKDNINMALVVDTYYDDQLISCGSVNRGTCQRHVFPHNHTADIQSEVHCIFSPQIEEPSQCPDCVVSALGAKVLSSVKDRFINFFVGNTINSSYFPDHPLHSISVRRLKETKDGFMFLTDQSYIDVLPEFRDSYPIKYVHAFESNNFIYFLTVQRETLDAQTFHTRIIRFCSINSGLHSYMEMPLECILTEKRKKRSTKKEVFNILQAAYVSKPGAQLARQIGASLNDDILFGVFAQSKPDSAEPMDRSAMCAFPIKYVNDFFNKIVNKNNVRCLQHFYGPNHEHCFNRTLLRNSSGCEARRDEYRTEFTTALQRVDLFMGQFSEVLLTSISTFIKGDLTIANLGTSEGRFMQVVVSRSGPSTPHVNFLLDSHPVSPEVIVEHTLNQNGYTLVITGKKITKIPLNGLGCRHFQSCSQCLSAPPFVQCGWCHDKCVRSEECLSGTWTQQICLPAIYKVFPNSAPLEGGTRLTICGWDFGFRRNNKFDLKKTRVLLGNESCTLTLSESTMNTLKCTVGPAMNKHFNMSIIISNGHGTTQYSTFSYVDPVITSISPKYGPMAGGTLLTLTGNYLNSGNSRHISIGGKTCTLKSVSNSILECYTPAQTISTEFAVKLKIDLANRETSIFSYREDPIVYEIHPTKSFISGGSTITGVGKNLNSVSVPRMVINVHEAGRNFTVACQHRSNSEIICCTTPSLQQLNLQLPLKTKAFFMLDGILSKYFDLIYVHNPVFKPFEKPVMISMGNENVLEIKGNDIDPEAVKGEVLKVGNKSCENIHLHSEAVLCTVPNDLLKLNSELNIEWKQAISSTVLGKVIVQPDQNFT
Procedure: An examination on whether the anti-c-Met/anti-VEGF bispecific antibody maintains binding affinity to c-Met was conducted using Biacore T100(GE). A human Fab binding agent (GE Healthcare) was immobilized onto a CM5 chip (#BR-1005-30, GE) according to the manufacturer's instructions. About 90˜120 RU of the anti-c-Met/anti-VEGF bispecific antibody was captured, and c-Met-Fc (#358-MT/CF, R&D Systems) was injected thereto at various concentrations. Then, 10 mM Glycine-HCl (pH 2.1) solution was injected thereto to regenerate the surface. The obtained data were fitted using BlAevaluation software (GE Healthcare, Biacore T100 evaluation software), to measure the binding affinity to c-Met.

[2] = biological target: T1, human c-Met/Fc fusion protein (R&D …); assay: ELISA, human c-Met/Fc fusion protein coated on plate, hybridoma culture, anti-mouse IgG-HRP
Procedure: Human c-Met/Fc fusion protein was seeded in an amount of 50 μL (2 μg/mL)/well to microtiter plates and allowed to adhere to the surface of each well. The antibody that remained unbound was removed by washing.
The hybridoma cell culture obtained in Reference Example 1.1.2 was added in an amount of 50 μL to each well of the plates and incubated for 1 hour. The cells remaining unreacted were washed out with a sufficient amount of Tris-buffered saline and Tween 20 (TBST). Goat anti-mouse IgG-horseradish peroxidase (HRP) was added to the plates and incubated for 1 hour at room temperature. The plates were washed with a sufficient amount of TBST, followed by reacting the peroxidase with a substrate (OPD). Absorbance at 450 nm was measured on an ELISA reader.

Sequence of VEGF (R&D systems) (P15692 other isoform, or with tags, fused parts or gaps limits assumed): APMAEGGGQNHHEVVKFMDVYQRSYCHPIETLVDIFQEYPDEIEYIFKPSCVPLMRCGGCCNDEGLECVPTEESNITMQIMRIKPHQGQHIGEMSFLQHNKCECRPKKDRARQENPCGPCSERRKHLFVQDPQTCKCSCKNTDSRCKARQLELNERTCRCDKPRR

| Kd (VEGF (R&D systems)) [nM] | Kd [1] [nM] | binding result [2] | Binder |
| --- | --- | --- | --- |
| 2.2 | 0.06 | – | MV-22 anti-c-Met/anti-VEGF bispecific antibody (bispecific antibody, human IgG2, kappa) heavy: EVQLVESGGGLVQPGGSLRLSCAASGFTFTDYYMSWVRQAPGKGLEWLGFIRNKANGYTTEYSASVKGRFTISRDNSKNTLYLQMNSLRAEDTAVYYCARDNWFAYWGQGTLVTVSSASTKGPSVFPLAPCSRSTSESTAALGCLVKDYFPEPVTVSWNSGALTSGVHTFPAVLQSSGLYSLSSVVTVPSSNFGTQTYTCNVDHKPSNTKVDKTVERKCCVECPPCPAPPVAGPSVFLFPPKPKDTLMISRTPEVTCVVVDVSHEDPEVQFNWYVDGVEVHNAKTKPREEQFNSTFRVVSVLTVVHQDWLNGKEYKCKVSNKGLPAPIEKTISKTKGQPREPQVYTLPPSREEMTKNQVSLTCLVKGFYPSDIAVEWESNGQPENNYKTTPPMLDSDGSFFLYSKLTVDKSRWQQGNVFSCSVMHEALHNHYTQKSLSLSPGKGGGGSGGGGSEVQLLESGGGLVQTGGSLRLSCAASGFTFSDYAMSWVRQAPGKGLEWVSWIYPGDSSIYYADSVKGRFTISRDNSKNTLYLQMNSLRAEDTAVYYCARLLSIDQAQLHYYYDAMDVWGQGTLVTVSSGGGGSGGGGSGGGGSQSVLTQPPSPSGTPGQRVTISCTGSSSNIGNYYVYWYQQLPGTAPKLLIYANSHRPSGVPDRFSGSKSGTSASLAISGLRSEDEADYYCGSWDDSLSAYVFGGGTKLTVLG light: DIQMTQSPSSLSASVGDRVTITCKSSQSLLASGNQNNYLAWYQQKPGKAPKMLIIWASTRVSGVPSRFSGSGSGTDFTLTISSLQPEDFATYYCQQSYSRPYTFGQGTKVEIKRTVAAPSVFIFPPSDEQLKSGTASVVCLLNNFYPREAKVQWKVDNALQSGNSQESVTEQDSKDSTYSLSSTLTLSKADYEKHKVYACEVTHQGLSSPVTKSFNRGEC |
| – | – | binds | AbF46, mouse monoclonal antibody to c-Met (antibody, V domains shown, Tested as hybridoma culture supernatant in the selection ELISA; also called antibody of hybridoma KCLRF-BP-00220) VH: EVKLVESGGGLVQPGGSLRLSCATSGFTFTDYYMSWVRQPPGKALEWLGFIRNKANGYTTEYSASVKGRFTISRDNSQSILYLQMDTLRAEDSATYYCARDNWFAYWGQGTLVTVSA VL: DILMTQSPSSLTVSAGEKVTMSCKSSQSLLASGNQNNYLAWHQQKPGRSPKMLIIWASTRVSGVPDRFIGSGSGTDFTLTINSVQAEDLAVYYCQQSYSAPLTFGAGTKLELK |
